Results on five substances are retold here after patent US11306156.

For experiment [1], the target named is D3H44 light chain Q124E_Q160E_T180E with N-terminal HA or FLAG tag. Briefly: LCCA (SPR tag readout), L1:L2 DNA 1:3, normalized to 1:1; competing light chain m17.
The target in experiment [2] is D3H44 light chain F116C_Q124R_T178R with N-terminal HA or FLAG tag. Briefly: LCCA (SPR tag readout), L1:L2 DNA 1:3, normalized to 1:1; competing light chain m18.
Experiment [3] concerns the target D3H44 light chain Q124E_T180E with N-terminal HA or FLAG tag. Briefly: LCCA (SPR tag readout), L1:L2 DNA 1:3, normalized to 1:1; competing light chain m15.
In experiment [4] the target is D3H44 light chain Q124E_Q160E_T180E with N-terminal HA or FLAG tag. The description is as above.
Experiment [5] concerns the target D3H44 light chain Q124E_T180E with N-terminal HA or FLAG tag. Briefly: LCCA (SPR tag readout), L1:L2 DNA 1:9, normalized to 1:1; competing light chain m12.
Experiment [6] addresses D3H44 light chain Q124R_T178R with N-terminal HA or FLAG tag. Briefly: LCCA (SPR tag readout), L1:L2 DNA 1:3, normalized to 1:1; competing light chain m13.
Experiment [7] addresses D3H44 light chain Q124R_Q160K_T178R with N-terminal HA or FLAG tag. The experiment is described as above.
Experiment [8] concerns the target D3H44 light chain Q124R_T178K with N-terminal HA or FLAG tag. The experiment is described as above.
The target of experiment [9] is D3H44 light chain Q124K_T178R with N-terminal HA or FLAG tag. The experiment is described as above.
Experiment [10] addresses D3H44 light chain Q124E_T180E with N-terminal HA or FLAG tag. Briefly: LCCA (SPR tag readout), L1:L2 DNA 1:3, normalized to 1:1; competing light chain m12.
The target is the same in experiment [11]. Briefly: LCCA (SPR tag readout), L1:L2 DNA 1:3, normalized to 1:1; competing light chain m14.
The target of experiment [12] is D3H44 light chain Q124R_T178R with N-terminal HA or FLAG tag. Briefly: LCCA (SPR tag readout), L1:L2 DNA 1:9, normalized to 1:1; competing light chain m18.
In experiment [13] the target is D3H44 light chain Q124R_T178K with N-terminal HA or FLAG tag. The description is as above.
Experiment [14] has as its target D3H44 light chain Q124K_T178R with N-terminal HA or FLAG tag. Briefly: LCCA (SPR tag readout), L1:L2 DNA 1:9, normalized to 1:1; competing light chain m13.
Experiment [15] deals with D3H44 light chain Q124E_T180E with N-terminal HA or FLAG tag. Briefly: LCCA (SPR tag readout), L1:L2 DNA 1:3, normalized to 1:1; competing light chain m9.
For experiment [16], the target named is D3H44 light chain Q124E_Q160E_T180E with N-terminal HA or FLAG tag. The experiment is described as above.
For experiment [17] the target is unchanged. Briefly: LCCA (SPR tag readout), L1:L2 DNA 1:9, normalized to 1:1; competing light chain m15.
Experiment [18] has the same target. Briefly: LCCA (SPR tag readout), L1:L2 DNA 1:9, normalized to 1:1; competing light chain m9.
The target in experiment [19] is D3H44 light chain Q124R_T178R with N-terminal HA or FLAG tag. Briefly: LCCA (SPR tag readout), L1:L2 DNA 1:3, normalized to 1:1; competing light chain m18.
Experiment [20] concerns the target D3H44 light chain Q124R_T178K with N-terminal HA or FLAG tag. Described as above.
In experiment [21] the target is D3H44 light chain Q124E_V133D with N-terminal HA or FLAG tag. Briefly: LCCA (SPR tag readout), L1:L2 DNA 1:3, normalized to 1:1; competing light chain m9.
Experiment [22] deals with D3H44 light chain Q124R_T178R with N-terminal HA or FLAG tag. Briefly: LCCA (SPR tag readout), L1:L2 DNA 1:3, normalized to 1:1; competing light chain m16.
For experiment [23] the target is unchanged. Briefly: LCCA (SPR tag readout), L1:L2 DNA 1:9, normalized to 1:1; competing light chain m16.
Experiment [24] concerns the target D3H44 light chain Q124E_V133D with N-terminal HA or FLAG tag. Briefly: LCCA (SPR tag readout), L1:L2 DNA 1:9, normalized to 1:1; competing light chain m9.
The target in experiment [25] is D3H44 light chain Q124E_Q160E_T180E with N-terminal HA or FLAG tag. Briefly: LCCA (SPR tag readout), L1:L2 DNA 1:9, normalized to 1:1; competing light chain m12.
The target in experiment [26] is D3H44 light chain T178R with N-terminal HA or FLAG tag. Briefly: LCCA (SPR tag readout), L1:L2 DNA 1:3, normalized to 1:1; competing light chain m13.
Experiment [27] deals with D3H44 light chain Q124E_Q160E_T180E with N-terminal HA or FLAG tag. Briefly: LCCA (SPR tag readout), L1:L2 DNA 1:3, normalized to 1:1; competing light chain m12.
Experiment [28] has as its target D3H44 light chain Q124R_T178R with N-terminal HA or FLAG tag. Briefly: LCCA (SPR tag readout), L1:L2 DNA 1:3, normalized to 1:1; competing light chain m10.
For experiment [29], the target named is D3H44 light chain Q124K_T178R with N-terminal HA or FLAG tag. Briefly: LCCA (SPR tag readout), L1:L2 DNA 1:9, normalized to 1:1; competing light chain m18.
Experiment [30] deals with D3H44 light chain Q124E_T180E with N-terminal HA or FLAG tag. Briefly: LCCA (SPR tag readout), L1:L2 DNA 1:3, normalized to 1:1; competing light chain m19.
Experiment [31] has as its target D3H44 light chain Q124E_T178E_T180E with N-terminal HA or FLAG tag. Briefly: LCCA (SPR tag readout), L1:L2 DNA 1:3, normalized to 1:1; competing light chain m9.
Experiment [32] has the same target. Briefly: LCCA (SPR tag readout), L1:L2 DNA 1:9, normalized to 1:1; competing light chain m9.
Experiment [33] addresses D3H44 light chain Q124K_T178R with N-terminal HA or FLAG tag. Briefly: LCCA (SPR tag readout), L1:L2 DNA 1:3, normalized to 1:1; competing light chain m18.
The target of experiment [34] is D3H44 light chain Q124R_T178R with N-terminal HA or FLAG tag. Briefly: LCCA (SPR tag readout), L1:L2 DNA 1:9, normalized to 1:1; competing light chain m10.
Experiment [35] deals with D3H44 Fab heavy chain L143E_K145T_Q179E, ABD2-His6 tagged. Briefly: LCCA, SPR of light chain tags; L1:L2 DNA 1:9 normalized to 1:1; competing light chain m16.
Experiment [36] concerns the target D3H44 Fab heavy chain Q179R, ABD2-His6 tagged. The description is as above.
The target in experiment [37] is D3H44 Fab heavy chain Q179K, ABD2-His6 tagged. The experiment is described as above.
Experiment [38] addresses D3H44 Fab heavy chain L143E_K145T_Q179E, ABD2-His6 tagged. Briefly: LCCA, SPR of light chain tags; L1:L2 DNA 1:3 normalized to 1:1; competing light chain m16.
Experiment [39] addresses D3H44 Fab heavy chain Q179R, ABD2-His6 tagged. The experiment is described as above.
Experiment [40] concerns the target D3H44 Fab heavy chain Q179K, ABD2-His6 tagged. Described as above.

Turning to “D3H44 Fab heavy chain A139C_L143E_K145T_Q179E with C-terminal ABD2-His6 tag”, the H1L1:H1L2 normalized median ratio in [1] worked out at 11%; in experiment [2], 89%. In [2], this substance yielded an H1L1:H1L2 normalized median scalar value ln(r1/f1) of 2.08.
For “D3H44 Fab heavy chain L143E_K145T_Q179D with C-terminal ABD2-His6 tag”, the H1L1:H1L2 normalized median ratio in [3] worked out at 16%; in experiment [4] it was 11%; in experiment [5], 11%; in experiment [6], 76%; in experiment [7], 69%; in experiment [8] it was 84%. The H1L1:H1L2 normalized median ratio in experiment [9] was 85%; in experiment [10], 15%; in [11], 31%; in experiment [12], 82%; in [13] it was 78%; in [14] it was 89%. Also, the H1L1:H1L2 normalized median ratio in experiment [15] was found to be 24%; in experiment [16], 13%; in experiment [17], 22%; in experiment [18], 18%; in [19], 87%; in [20], 89%. Also, the H1L1:H1L2 normalized median scalar value ln(r1/f1) in experiment [6] turned out to be 1.14; in experiment [7] it was 0.79; in [8], 1.63; in [9], 1.74; in experiment [12] it was 1.55; in experiment [13] it was 1.28. In addition, the H1L1:H1L2 normalized median scalar value ln(r1/f1) in [14] is 2.05; in experiment [19], 1.9; in experiment [20] it was 2.08.
“D3H44 Fab heavy chain L143K with C-terminal ABD2-His6 tag”: the H2L2:H2L1 normalized median ratio in experiment [21] was 92%; in experiment [22], 8%; in experiment [23], 8%; in experiment [24] it was 92%.
Regarding “D3H44 Fab heavy chain Q179K with C-terminal ABD2-His6 tag”, the H2L2:H2L1 normalized median ratio in [3] is 96%; in experiment [5], 87%; in experiment [25], 90%; in experiment [6], 4%; in experiment [26], 4%; in experiment [8], 4%. The H2L2:H2L1 normalized median ratio in experiment [9] worked out at 4%; in [1] it was 94%; in experiment [10], 96%; in [27], 92%; in experiment [28] it was 8%; in [29] it was 10%. Further, the H2L2:H2L1 normalized median ratio in experiment [30] amounted to 96%; in experiment [14], 13%; in [15] it was 96%; in [31], 92%; in experiment [32], 91%; in [33], 8%. The H2L2:H2L1 normalized median ratio in experiment [2] turned out to be 6%; in experiment [34], 9%.
On to “D3H44 light chain Q124E_T178E, HA or FLAG tagged”, for which the H1L1:H1L2 normalized median ratio in [35] turned out to be 15%; in [38], 14%. Moreover, the H2L2:H2L1 normalized median ratio in [36] came to 85%; in experiment [37], 89%; in experiment [39], 97%; in [40], 96%.
